We go through three molecules from paper doi:10.1101/2022.10.04.510902 (bioRxiv, 2022).

Broadly, the IC50 is the concentration needed to halve the response being measured. Usually Kd stands for the equilibrium constant for the complex coming apart. Low values mean tighter binding, high ones weaker binding. One may read the stoichiometry N as the number of molecules, sites or subunits per partner or assembly.

The target of test [1] is Full-length mouse His-PERIOD2-flag (mouse, UniProt O54943 1-1257). The experiment in a line: pull-down.
Test [2] has as its target TAMRA-BMAL1 mTAD WT probe (mouse). Description: fluorescence polarisation.
The target in test [3] is TAMRA-BMAL1 mTAD Δswitch probe (594-F619Y) (mouse). Description: fluorescence polarisation. Background: Fluorescence polarisation rises when a labelled molecule tumbles more slowly, as on binding a larger partner.
The target in test [4] is BMAL1 transactivation domain (TAD), residues 579-626 (mouse). The experiment in a line: ITC.

Full-length mouse His-PERIOD2-flag, sequence (O54943 whole entry): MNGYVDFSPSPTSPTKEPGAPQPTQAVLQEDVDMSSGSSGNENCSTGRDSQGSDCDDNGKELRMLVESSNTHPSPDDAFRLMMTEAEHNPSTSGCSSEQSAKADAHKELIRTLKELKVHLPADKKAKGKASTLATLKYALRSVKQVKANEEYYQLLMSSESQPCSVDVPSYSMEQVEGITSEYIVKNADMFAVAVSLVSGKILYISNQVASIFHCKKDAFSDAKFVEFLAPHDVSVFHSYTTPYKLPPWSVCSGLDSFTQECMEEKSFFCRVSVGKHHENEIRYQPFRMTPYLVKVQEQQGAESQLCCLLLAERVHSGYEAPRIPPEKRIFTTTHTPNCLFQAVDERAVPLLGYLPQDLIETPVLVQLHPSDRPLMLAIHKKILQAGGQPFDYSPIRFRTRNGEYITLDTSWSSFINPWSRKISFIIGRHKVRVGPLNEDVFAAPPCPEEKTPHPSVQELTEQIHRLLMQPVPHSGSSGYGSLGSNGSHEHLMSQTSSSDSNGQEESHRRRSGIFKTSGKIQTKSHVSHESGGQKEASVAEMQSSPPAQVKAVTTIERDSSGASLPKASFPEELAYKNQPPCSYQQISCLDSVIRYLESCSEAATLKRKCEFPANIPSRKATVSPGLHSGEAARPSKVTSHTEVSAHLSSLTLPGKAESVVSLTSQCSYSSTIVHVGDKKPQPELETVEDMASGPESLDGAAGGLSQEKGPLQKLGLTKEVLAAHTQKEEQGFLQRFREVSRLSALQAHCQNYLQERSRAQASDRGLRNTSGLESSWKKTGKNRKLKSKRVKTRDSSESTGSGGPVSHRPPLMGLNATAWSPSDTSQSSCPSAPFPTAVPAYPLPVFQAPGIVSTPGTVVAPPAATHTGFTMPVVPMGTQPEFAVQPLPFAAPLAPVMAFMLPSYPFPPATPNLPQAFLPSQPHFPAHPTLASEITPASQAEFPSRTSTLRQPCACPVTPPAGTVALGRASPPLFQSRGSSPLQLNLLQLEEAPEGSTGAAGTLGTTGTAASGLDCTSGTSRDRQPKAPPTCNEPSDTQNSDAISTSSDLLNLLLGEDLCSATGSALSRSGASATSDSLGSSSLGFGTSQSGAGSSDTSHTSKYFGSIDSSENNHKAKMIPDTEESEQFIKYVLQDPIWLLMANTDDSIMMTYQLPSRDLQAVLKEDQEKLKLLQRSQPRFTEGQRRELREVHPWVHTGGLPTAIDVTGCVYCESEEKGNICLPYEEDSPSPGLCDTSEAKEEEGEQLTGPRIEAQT

B1: CK1δ kinase domain (residues 1-294) (enzyme, human, UniProt P48730 1-294, looked up)
chain: MELRVGNRYRLGRKIGSGSFGDIYLGTDIAAGEEVAIKLECVKTKHPQLHIESKIYKMMQGGVGIPTIRWCGAEGDYNVMVMELLGPSLEDLFNFCSRKFSLKTVLLLADQMISRIEYIHSKNFIHRDVKPDNFLMGLGKKGNLVYIIDFGLAKKYRDARTHQHIPYRENKNLTGTARYASINTHLGIEQSRRDDLESLGYVLMYFNLGSLPWQGLKAATKRQKYERISEKKMSTPIEVLCKGYPSEFATYLNFCRSLRFDDKPDYSYLRQLFRNLFHRQGFSYDYVFDWNMLK
Take B1: the binding result in test [1] was “binds”.

B2: CHRONO minimal repressive domain (MRD), tag form not stated (domain or fragment)
chain: ELETSLNTQGCTTEGDLLFAQKCKELQGFIPPLTDLLNGLKMGRFERGLSSFQQSVAMDRIQRIVGVLQKPQMGERYLGTLLQVEGMLKTWFPQIAAQKSSLGGGKHQLTKHFPSHHSDSAASSPASPMEKMDQTQLGHLALKPK
In test [2], B2 came in with an IC50 of 375 nM and a Kd of 386 nM. This molecule came in with a Kd in test [3] of 1540 nM.

B3: His-CHRONO minimal repressive domain (MRD) (domain or fragment)
chain: B2 chain
In test [4], B3 showed a Kd of 369 nM and a stoichiometry N of 1.
